According to article PMC6783537:

Target: full-length mouse IGF1R (MmIGF1R), residues 1–1262, Y951A, D1107N (mouse) (UniProt Q60751)
Test: cryo-EM structure; purified MmIGF1R and HsIGF1 mixed at molar ratio 1:2, 1 h at 4 °C, complex purified by SEC in 20 mM Hepes-Na pH 7.4, 200 mM NaCl, 0.03% DDM; 4.3 Å

Sequence of full-length mouse IGF1R (MmIGF1R), residues 1–1262, Y951A, D1107N (mouse) (Q60751 31-1292 Y981A/D1137N): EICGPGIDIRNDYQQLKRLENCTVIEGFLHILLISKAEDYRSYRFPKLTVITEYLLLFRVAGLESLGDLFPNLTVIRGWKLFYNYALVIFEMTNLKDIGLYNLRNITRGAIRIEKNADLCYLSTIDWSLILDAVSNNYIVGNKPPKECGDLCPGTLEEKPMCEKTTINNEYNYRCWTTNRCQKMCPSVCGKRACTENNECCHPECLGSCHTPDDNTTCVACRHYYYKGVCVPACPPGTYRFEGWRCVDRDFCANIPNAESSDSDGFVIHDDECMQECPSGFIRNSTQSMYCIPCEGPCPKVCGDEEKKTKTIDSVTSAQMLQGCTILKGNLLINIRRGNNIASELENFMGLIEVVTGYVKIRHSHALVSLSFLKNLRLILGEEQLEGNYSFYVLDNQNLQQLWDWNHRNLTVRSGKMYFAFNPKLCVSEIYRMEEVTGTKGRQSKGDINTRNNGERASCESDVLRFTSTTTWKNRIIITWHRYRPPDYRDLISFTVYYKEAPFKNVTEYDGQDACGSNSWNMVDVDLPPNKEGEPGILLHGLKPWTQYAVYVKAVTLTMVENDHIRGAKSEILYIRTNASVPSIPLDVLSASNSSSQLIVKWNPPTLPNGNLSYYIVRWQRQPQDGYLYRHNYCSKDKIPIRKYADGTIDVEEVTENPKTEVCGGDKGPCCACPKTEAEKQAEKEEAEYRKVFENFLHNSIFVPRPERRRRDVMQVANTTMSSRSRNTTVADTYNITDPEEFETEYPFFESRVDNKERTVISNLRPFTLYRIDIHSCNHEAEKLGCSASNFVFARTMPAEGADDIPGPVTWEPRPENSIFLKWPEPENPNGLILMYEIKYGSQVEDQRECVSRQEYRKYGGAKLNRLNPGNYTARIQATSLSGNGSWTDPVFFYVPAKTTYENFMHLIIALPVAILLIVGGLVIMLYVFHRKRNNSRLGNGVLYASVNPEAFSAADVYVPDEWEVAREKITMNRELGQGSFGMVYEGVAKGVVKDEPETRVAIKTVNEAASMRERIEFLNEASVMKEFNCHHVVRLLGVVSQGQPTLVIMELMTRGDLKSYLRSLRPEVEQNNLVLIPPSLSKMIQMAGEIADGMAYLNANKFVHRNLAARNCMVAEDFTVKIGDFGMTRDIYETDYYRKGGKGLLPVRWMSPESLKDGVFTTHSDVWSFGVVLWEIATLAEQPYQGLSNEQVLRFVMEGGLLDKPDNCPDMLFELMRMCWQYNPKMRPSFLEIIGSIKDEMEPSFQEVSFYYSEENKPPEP

stoichiometry N (IGF1 per IGF1R dimer): 1
Substance: human IGF1 (HsIGF1), mature, residues 49–118 (ligand)
